Experimental data as given in IntAct's records for PubMed 18319344.

B1: PTS system glucose-specific EIICB component (Escherichia coli (strain K12)), P69786 (parent)
chain: MFKNAFANLQKVGKSLMLPVSVLPIAGILLGVGSANFSWLPAVVSHVMAEAGGSVFANMPLIFAIGVALGFTNNDGVSALAAVVAYGIMVKTMAVVAPLVLHLPAEEIASKHLADTGVLGGIISGAIAAYMFNRFYRIKLPEYLGFFAGKRFVPIISGLAAIFTGVVLSFIWPPIGSAIQTFSQWAAYQNPVVAFGIYGFIERCLVPFGLHHIWNVPFQMQIGEYTNAAGQVFHGDIPRYMAGDPTAGKLSGGFLFKMYGLPAAAIAIWHSAKPENRAKVGGIMISAALTSFLTGITEPIEFSFMFVAPILYIIHAILAGLAFPICILLGMRDGTSFSHGLIDFIVLSGNSSKLWLFPIVGIGYAIVYYTIFRVLIKALDLKTPGREDATEDAKATGTSEMAPALVAAFGGKENITNLDACITRLRVSVADVSKVDQAGLKKLGAAGVVVAGSGVQAIFGTKSDNLKTEMDEYIRNH
partner: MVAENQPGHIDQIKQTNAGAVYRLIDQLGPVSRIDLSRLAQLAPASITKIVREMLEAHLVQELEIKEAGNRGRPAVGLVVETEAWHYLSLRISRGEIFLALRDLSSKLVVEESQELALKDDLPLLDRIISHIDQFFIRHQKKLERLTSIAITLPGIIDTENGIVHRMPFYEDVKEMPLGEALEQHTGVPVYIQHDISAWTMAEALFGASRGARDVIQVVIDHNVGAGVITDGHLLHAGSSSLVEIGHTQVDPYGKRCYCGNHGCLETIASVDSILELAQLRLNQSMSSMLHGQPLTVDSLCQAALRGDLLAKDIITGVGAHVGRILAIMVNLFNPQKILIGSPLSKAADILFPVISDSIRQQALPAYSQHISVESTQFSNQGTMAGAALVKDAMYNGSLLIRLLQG

Variants of: B1
Details: with mlc_ecoli mlc

effect of a mutation on the interaction	Variant
disrupting interaction	Q456A
decreasing interaction	A451F
disrupting interaction	V449Q
